Sequences and labels used below:
B1: ZW106 (antibody, V domains shown)
VH: QVQLQQPESELVRPGGSVKLSCKASGYTFTSYWMDWVKQRHGQGLEWIGNIYPDSGGTNYAEKFKSKATLTVDTSSSTAYMHLSSLTSEDSAVYYCTREEALGGYYELTYWGQGTLVTVSA
VL: DIVLTQSPASLPVSLGQRATISCRASQSVSTSSYSYMHWYQQKPGQPPKLLIKYASNLESGVPARFSGSGSGTDFTLNIHPVEEEDTATYYCQHSWEIPYTFGGGTKLEIE
B2: ZW107 (antibody, V domains shown)
VH: QVQLQQSGAELVRPGTSVKISCKASGYAFTNYWLGWVKQRPGHGLEWIGDIYPGNGNNYYSEKFKDKATLTADKSSSTVYIRLSSLTSEDSAVYFCARHGSFRSAMDYWGQGTSVTVSS
VL: DIQMTQSPASPSASVGETVTITCRASENIYSYLAWYQQKQGKSPQLLVYNAKTLADGVPSRFSGSGSGTQFSLKINSLQPEDFGSYYCQHHYGTPPTFGGGTKLEIK
B3: ZW103 (antibody, V domains shown)
VH: QVQLQQSGAELVRPGVSVKISCKGSGYTFTDYAMHWVKQSHVKSLEWIGGISTYNGDASYNQKFKGKATMTVDKSSRTAYMELVRLTSEDSAIYYCAPSNYGYAMDYWGQGTSVTVSS
VL: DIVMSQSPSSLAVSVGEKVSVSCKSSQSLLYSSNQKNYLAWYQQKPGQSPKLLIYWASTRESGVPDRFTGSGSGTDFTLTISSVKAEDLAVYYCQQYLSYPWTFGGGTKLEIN
B4: ZW104 (antibody, V domains shown)
VH: QVQLQQSGAELARPGASVKMSCKASGYIFTTYAMHWVKQRPGQGLEWIGYINPTTVYTIYNQKFKDKATLTADKSSSTAYMQLSSLTSEDSAVYYCARLGGHWYFDVWGAGTTVTVSS
VL: not shown

We go through four molecules from patent US10899842 (dated 2021).

The target of this assay is human 4-1BB ECD (human, UniProt Q07011).
Chain of human 4-1BB ECD (Q07011 24-186): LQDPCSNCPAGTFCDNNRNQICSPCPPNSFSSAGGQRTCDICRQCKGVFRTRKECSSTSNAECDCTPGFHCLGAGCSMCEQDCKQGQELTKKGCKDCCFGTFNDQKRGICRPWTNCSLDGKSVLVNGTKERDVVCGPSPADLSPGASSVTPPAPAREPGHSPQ
Molecule B1 gave a dissociation constant Kd of 1.2 nM.
In turn, B2 had a dissociation constant (Kd) of under 0.001 nM.
In turn, B3 had a dissociation constant (Kd) of 0.265 nM.
Turning to B4, the affinity, expressed as Kd, was 0.0474 nM.
